In patent US20170166618A1 (Novartis, published 2017):

Target: FGF23 receptor
Experiment: cell-based or functional assay

- Egr-1-luciferase reporter activity, fold change at about 0.6 nM, with heparin (20 µg/ml): 2 fold change
- Egr-1-luciferase reporter activity, fold change at about 1.21 nM, no heparin: 1.2 fold change
- Egr-1-luciferase reporter activity, fold change at about 19.3 nM, no heparin: 2.4 fold change
B1: sKlotho-FGF23-6×His fusion polypeptide (ligand)
chain: EPGDGAQTWARFSRPPAPEAAGLFQGTFPDGFLWAVGSAAYQTEGGWQQHGKGASIWDTFTHHPLAPPGDSRNASLPLGAPSPLQPATGDVASDSYNNVFRDTEALRELGVTHYRFSISWARVLPNGSAGVPNREGLRYYRRLLERLRELGVQPVVTLYHWDLPQRLQDAYGGWANRALADHFRDYAELCFRHFGGQVKYWITIDNPYVVAWHGYATGRLAPGIRGSPRLGYLVAHNLLLAHAKVWHLYNTSFRPTQGGQVSIALSSHWINPRRMTDHSIKECQKSLDFVLGWFAKPVFIDGDYPESMKNNLSSILPDFTESEKKFIKGTADFFALCFGPTLSFQLLDPHMKFRQLESPNLRQLLSWIDLEFNHPQIFIVENGWFVSGTTKRDDAKYMYYLKKFIMETLKAIKLDGVDVIGYTAWSLMDGFEWHRGYSIRRGLFYVDFLSQDKMLLPKSSALFYQKLIEKNGFPPLPENQPLEGTFPCDFAWGVVDNYIQVDTTLSQFTDLNVYLWDVHHSKRLIKVDGVVTKKRKSYCVDFAAIQPQIALLQEMHVTHFRFSLDWALILPLGNQSQVNHTILQYYRCMASELVRVNITPVVALWQPMAPNQGLPRLLARQGAWENPYTALAFAEYARLCFQELGHHVKLWITMNEPYTRNMTYSAGHNLLKAHALAWHVYNEKFRHAQNGKISIALQADWIEPACPFSQKDKEVAERVLEFDIGWLAEPIFGSGDYPWVMRDWLNQRNNFLLPYFTEDEKKLIQGTFDFLALSHYTTILVDSEKEDPIKYNDYLEVQEMTDITWLNSPSQVAVVPWGLRKVLNWLKFKYGDLPMYIISNGIDDGLHAEDDQLRVYYMQNYINEALKAHILDGINLCGYFAYSFNDRTAPRFGLYRYAADQFEPKASMKHYRKIIDSNGFPGPETLERFCPEEFTVCTECSFFHTRKSLGSGGGGSGGGGSGGGGSLKYPNASPLLGSSWGGLIHLYTATARNSYHLQIHKNGHVDGAPHQTIYSALMIRSEDAGFVVITGVMSRRYLCMDFRGNIFGSHYFDPENCRFQHQTLENGYDVYHSPQYHFLVSLGRAKRAFLPGMNPPPYSQFLSRRNEIPLIHFNTPIPRRHTQSAEDDSERDPLNVLKPRARMTPAPASCSQELPSAEDNSPMASDPLGVVRGGRVNTHAGGTGPEGCRPFAKFIHHHHHH
